Tested on: subjects with previously treated locally advanced or metastatic urothelial cancer
Test: EV-301: safety, adverse events (safety analysis set, NCI-CTCAE v4.03, MedDRA)
[1] = Grade Any, N = 296 EV, 291 chemotherapy
[2] = Grade ≥3, N = 296 EV, 291 chemotherapy
[3] = MedDRA v23.0, N = 296 EV, 291 chemotherapy
[4] = No baseline PN, n = 241 EV, 233 chemotherapy
[5] = PY = 132.3 EV, 96.1 chemotherapy
[6] = any event, N = 296 EV, 291 chemotherapy

From the text: The Safety Analysis Set (SAF) will be used for the safety analysis. All subjects who are randomized and received study drug will be included in the SAF. The frequency of AEs and the serious AEs will be summarized by MedDRA system organ class and preferred term. In addition, summary statistics will be provided for the following safety parameters: • Laboratory values • Vital sign measurements • ECOG PS
An AE is any untoward medical occurrence in a subject, temporally associated with the use of a medicinal product, whether or not considered related to the medicinal product. An AE can therefore be any unfavorable and unintended sign (including an abnormal laboratory finding), symptom, or disease (new or exacerbated) temporally associated with the use of a medicinal product.
AEs, including abnormal clinical laboratory values, will be graded using the NCI-CTCAE guidelines (Version 4.03).
The safety analysis set (SAF), which consists of all subjects who received any amount of study drug, will be used for safety analyses.
SAF was used to perform all safety analysis. All treated subjects were analyzed according to the treatment they received.
The number and percentage of AEs by severity were also summarized. All AEs were listed.
A study drug-related TEAE is defined as any TEAE with a causal relationship of YES by the investigator. AEs of interest as classified by customized MedDRA queries and/or standard MedDRA queries were also summarized.

Substance: enfortumab vedotin
- TRAE of special interest: Infusion-related reactions, % [1]: 8.8%
- TRAE of special interest: Infusion-related reactions, Local events, % [1]: 1.0%
- TRAE of special interest: Infusion-related reactions, Systemic events, % [1]: 7.8%
- TRAE of special interest: Ocular disorders, % [1]: 18.6%
- TRAE of special interest: Peripheral neuropathy, % [1]: 46.3%
- TRAE of special interest: Peripheral neuropathy, Motor events, % [1]: 7.4%
- TRAE of special interest: Peripheral neuropathy, Sensory events, % [1]: 43.9%
- TRAE of special interest: Rash, % [1]: 43.9%
- TRAE of special interest: Severe cutaneous adverse reaction, % [1]: 20.3%
- TRAE of special interest: Skin reactions, % [1]: 47.0%
- TRAE: Alopecia, Number of patients [2]: 0
- TRAE: Anemia, Number of patients [2]: 8
- TRAE: Anemia, percent [2]: (2.7) percent
- TRAE: Any adverse event, Number of patients [2]: 152
- TRAE: Any adverse event, percent [2]: (51.4) percent
- TRAE: Decreased appetite, Number of patients [2]: 9
- TRAE: Decreased appetite, percent [2]: (3.0) percent
- TRAE: Decreased neutrophil count, Number of patients [2]: 18
- TRAE: Decreased neutrophil count, percent [2]: (6.1) percent
- TRAE: Decreased white-cell count, Number of patients [2]: 4
- TRAE: Decreased white-cell count, percent [2]: (1.4) percent
- TRAE: Diarrhea, Number of patients [2]: 10
- TRAE: Diarrhea, percent [2]: (3.4) percent
- TRAE: Dysgeusia, Number of patients [2]: 0
- TRAE: Fatigue, Number of patients [2]: 19
- TRAE: Fatigue, percent [2]: (6.4) percent
- TRAE: Febrile neutropenia, Number of patients [2]: 2
- TRAE: Febrile neutropenia, percent [2]: (0.7) percent
- TRAE: Maculopapular rash, Number of patients [2]: 22
- TRAE: Maculopapular rash, percent [2]: (7.4) percent
- TRAE: Nausea, Number of patients [2]: 3
- TRAE: Nausea, percent [2]: (1.0) percent
- TRAE: Neutropenia, Number of patients [2]: 14
- TRAE: Neutropenia, percent [2]: (4.7) percent
- TRAE: Peripheral sensory neuropathy, Number of patients [2]: 9
- TRAE: Peripheral sensory neuropathy, percent [2]: (3.0) percent
- TRAE: Pruritus, Number of patients [2]: 4
- TRAE: Pruritus, percent [2]: (1.4) percent
- TEAE with special safety interest: Any corneal disorders (SMQ), % [3]: (1.0%)
- TEAE with special safety interest: Any hyperglycemia (SSQ/CMQ), % [3]: (11.8%)
- TEAE with special safety interest: Any infusion related reactions (SSQ/CMQ), % [3]: (9.1%)
- TEAE with special safety interest: Any peripheral neuropathy (SMQ), % [3]: (50.3%)
- TEAE with special safety interest: Any rashes or severe cutaneous adverse reactions, % [3]: (53.7%)
- Treatment-emergent Hyperglycemia, % [4]: (5.8) %
- Treatment-emergent Peripheral motor neuropathy, % [4]: (9.1) %
- Treatment-emergent Peripheral neuropathy, % [4]: (50.6) %
- Treatment-emergent Peripheral sensory neuropathy, % [4]: (48.5) %
- most frequent Grade 3 or greater adverse event(s): rash, hyperglycemia, decreased neutrophil count, fatigue, anemia and decreased appetite, share of patients (PADCEV arm): more than 5%
- Grade ≥3 severity TEAE, E (number of events) [5]: 617
- Grade ≥3 severity TEAE, E/PY [5]: (4.7) E/PY
- Grade ≥3 severity TRAE, E (number of events) [5]: 320
- Grade ≥3 severity TRAE, E/PY [5]: (2.4) E/PY
- Overall TEAE, E (number of events) [5]: 5051
- Overall TRAE, E (number of events) [5]: 3033
- Serious TEAE, E (number of events) [5]: 314
- Serious TRAE, E (number of events) [5]: 114
- TEAE Leading to death, E (number of events) [5]: 21
- TEAE Leading to death, E/PY [5]: (0.2) E/PY
- TEAE Leading to death, excluding disease progression, E (number of events) [5]: 11
- TEAE Leading to death, excluding disease progression, E/PY [5]: (0.1) E/PY
- TEAE Leading to dose interruption, E (number of events) [5]: 536
- TEAE Leading to dose interruption, E/PY [5]: (4.1) E/PY
- TEAE Leading to dose reduction, E (number of events) [5]: 170
- TEAE Leading to dose reduction, E/PY [5]: (1.3) E/PY
- TEAE Leading to treatment withdrawal, E (number of events) [5]: 66
- TEAE Leading to treatment withdrawal, E/PY [5]: (0.5) E/PY
- TRAE Leading to death, E (number of events) [5]: 7
- TRAE Leading to death, E/PY [5]: (0.1) E/PY
- TRAE Leading to death, excluding disease progression, E (number of events) [5]: 7
- TRAE Leading to death, excluding disease progression, E/PY [5]: (0.1) E/PY
- TRAE Leading to dose interruption, E (number of events) [5]: 384
- TRAE Leading to dose interruption, E/PY [5]: (2.9) E/PY
- TRAE Leading to dose reduction, E (number of events) [5]: 165
- TRAE Leading to dose reduction, E/PY [5]: (1.2) E/PY
- TRAE Leading to treatment withdrawal, E (number of events) [5]: 51
- TRAE Leading to treatment withdrawal, E/PY [5]: (0.4) E/PY
- TRAE Leading to dose interruption, % [6]: (51.0) %
- TRAE Leading to dose reduction, % [6]: (32.4) %
- TRAE Leading to dose withdrawal, % [6]: (13.5) %
- Adverse events, regardless of relationship to treatment, that resulted in death (excluding disease progression) during the treatment period (in vivo): 11 patients
- Investigator-assessed treatment-related adverse events that resulted in death (in vivo): 7 patients
- Investigator-assessed treatment-related adverse events that resulted in death, % (in vivo): 2.4%
- Skin reactions and peripheral neuropathy among treatment-related adverse events of special interest (in vivo): most frequent
- Treatment-related adverse events of grade 3 or higher, rate after adjustment for treatment exposure (in vivo): 2.4 events per patient-year
- time to first onset of grade ≥2 peripheral neuropathy, median (range) (in vivo): 4.435 (0.36, 12.02) months
- treatment-related death: abnormal hepatic function (in vivo): 1 patient
- treatment-related death: hyperglycemia (in vivo): 1 patient
- treatment-related death: multiorgan dysfunction syndrome (in vivo): 2 patients
- treatment-related death: pelvic abscess (in vivo): 1 patient
- treatment-related death: pneumonia (in vivo): 1 patient
- treatment-related death: septic shock (in vivo): 1 patient
- Time to Onset of TRAE of special interest: Blurred vision, Median (range) (patients with the event): 2.448 months
- Time to Onset of TRAE of special interest: Corneal disorders, Median (range) (patients with the event): 4.337 months
- Time to Onset of TRAE of special interest: Dry eye, Median (range) (patients with the event): 1.906 months
- Time to Onset of TRAE of special interest: Hyperglycemia, Median (range) (patients with the event): 0.559 months
- Time to Onset of TRAE of special interest: Infusion-related reactions, Median (range) (patients with the event): 0.509 months
- Time to Onset of TRAE of special interest: Peripheral neuropathy, Median (range) (patients with the event): 2.694 months
- Time to Onset of TRAE of special interest: Skin reactions, Median (range) (patients with the event): 0.427 months
- incidence of treatment-related adverse events (safety population): 93.9%
